These results are taken from the supplement of paper PMC12042874.

± gives the uncertainty stated by the source.

A short description of this series: amyloid nucleation score (Sup35N fusion, yeast selection) (log enrichment); library NNK2; higher = more nucleation; inactive = no reads after selection. In a few lines: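 The nucleation score is the log enrichment of output over input reads, calculated with DiMSum and centred on the mode score of non-aggregating sequences. Sequences with under 100 input reads were excluded. Reads came from Illumina sequencing of plasmid inserts from psi-negative yeast expressing Sup35N fused to peptides of 20 random codons, induced 24 hours with 100 μM copper sulfate and grown 7 days at 30°C without adenine and uracil.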
Regarding NEVRYLGTVLACQQRLHTWM, the amyloid nucleation score was determined as 1.06 ± 0.29. The result for NEYGLLYVFIPSSISPLADI reads -1.5 ± 1.1; that for NFDGSCKA, -0.853 ± 1.1; that for NFHGDAYLESVRWIHIRNKR, -0.735 ± 0.48. Take NFHGSASNCDAIVYANFTMH: the amyloid nucleation score was determined as 4.61 ± 0.086.

Consider NFKNATIAFIGNMTMIVPRG, for which the amyloid nucleation score turned out to be 8.291 ± 0.038. In the case of NFKTI, the amyloid nucleation score result was “inactive”. For the substance NFLDMEWTNLLSVMCVDFWS, the amyloid nucleation score amounted to 4.55 ± 0.062. Consider NFTSFAYFELEDALWSWRRL, for which the amyloid nucleation score was determined as 1.16 ± 0.35. NFVRRSKSDKPCCYKTHSST displayed an amyloid nucleation score of -0.747 ± 0.41. In turn, NFVSISMGNIYMSQLGRWTA came in with an amyloid nucleation score of 8.33 ± 0.051. Under NFWMVPLIA stands -0.541 ± 0.79. With NFYKEFGGMIAYLDKILREE, the amyloid nucleation score is -1.13 ± 0.55.

NGAYNACNNTGYRTHAY returned an amyloid nucleation score of -0.818 ± 0.78. Under NGDVTVMITF stands 5.463 ± 0.031; under NGEASVGDFNVCLR, -0.478 ± 0.64. Take NGGTMLMRLDRS: the amyloid nucleation score was -0.216 ± 0.63. As to NGPVQIASGGRRVPLLWEVL, the amyloid nucleation score amounted to 0.098 ± 0.79. NGTLRAFVIKKVRIIDSRQV returned an amyloid nucleation score of 4.09 ± 0.076. Regarding NHRKVLMVVVLAVHNMGCCI, the amyloid nucleation score was 3.75 ± 0.15. With NIFFNL, the amyloid nucleation score was -0.13 ± 0.36.

Regarding NIFYRLNGFFQCPRSGLKGC, the amyloid nucleation score entry is “inactive”.

NIIACMYKLEDSGRQFSMLE came in with an amyloid nucleation score of 5.214 ± 0.046. NINLA: the amyloid nucleation score result was “inactive”. Substance NIRLRFCFRQMEWHNRFRDC had an amyloid nucleation score of 3.93 ± 0.069. In turn, NISDFVKLVSYWVSVRCDLR yielded an amyloid nucleation score of -0.305 ± 1.1.

Substance NISDTSMISNGYCIN yielded an amyloid nucleation score of 0.154 ± 0.63. NISGATMEVVIYHDAVCESN displayed an amyloid nucleation score of -0.361 ± 0.63.

NITMMGLVVTFVAISVRLSL returned an amyloid nucleation score of 0.959 ± 0.47. As to NITSSNRGVSFEETGVNAGI, the amyloid nucleation score result was “inactive”. For NIYADNARVWLPRGDRGLEW, the amyloid nucleation score was determined as 0.799 ± 0.74. The result for NKATNKTDRVMKPSAKKDTE reads -0.796 ± 0.39; that for NKFDRFMFPRVR, -0.98 ± 0.35. Under NKGSPCISCFVENDLYYLKY stands -0.707 ± 0.42.

With NKLWFWMGHTMSVEFDLIDN, the amyloid nucleation score result is “inactive”. Under NKRATALCNLHF stands “inactive”.

As to NKSLFMKFCVSLFRLGSYVT, the amyloid nucleation score was -0.618 ± 0.48. NLCHSNKCLNSRFSITHWV showed an amyloid nucleation score of 0.246 ± 0.8. Regarding NLCTVVCSDTAVLWTALPRL, the amyloid nucleation score was 9.478 ± 0.062. The result for NLECLYKLFPDFASLIRLCV reads 0.185 ± 0.8; that for NLFFVGPCELSRWLGFSNLQ, 5.874 ± 0.032; that for NLFPSQTLYVFRHVGCCG, “inactive”.

Turning to NLHFSLNCMIFQPTASRLKH, the amyloid nucleation score was determined as 6.824 ± 0.031. NLKRMFYVGCSIVSRKLIGR: the amyloid nucleation score was -0.095 ± 0.5. Consider NLNSFMVADYLYGDQVQKVF, for which the amyloid nucleation score came out at 0.138 ± 0.8.

NLNYLVLTYDVSVWNVYVVL had an amyloid nucleation score of 8.17 ± 0.046.

In turn, NLRGETRGVKLCLIWDVGRA registered an amyloid nucleation score of 0.078 ± 0.55. Substance NLRHKDGTGLLRSWMSIQRR displayed an amyloid nucleation score of 0.436 ± 0.62.

For NLRRCSHFHLACP, the amyloid nucleation score result is “inactive”.

NLVFCFDFQMSAPISGEMQY gave an amyloid nucleation score of 4.87 ± 0.098. NLVFKPFCEPSVVSV: the amyloid nucleation score amounted to 0.099 ± 0.62. With NLVILFGKWRRFLFAQWNWF, the amyloid nucleation score result was “inactive”. As to NLYAPGSIYSASFFRVMTLG, the amyloid nucleation score is -1.04 ± 0.48.

NMFTETDRILVLFIRCLVDC yielded an amyloid nucleation score of 0.305 ± 1. The result for NMGIRRFKFYIVNA reads -0.965 ± 0.78; that for NMGSYD, “inactive”; that for NMKSWGSVV, -0.145 ± 0.79. NMMGMAYSV returned an amyloid nucleation score of 0.063 ± 1.1.

Substance NMMISCVNTLADDVFRGGFV registered an amyloid nucleation score of -1.33 ± 0.31. The substance NMTVFT had an amyloid nucleation score of -0.202 ± 0.22. Take NMVLWWPIMYHLAWRLGHDV: the amyloid nucleation score was -0.137 ± 0.38. In turn, NMWLCNGSGRHRFWLR returned an amyloid nucleation score of 0.269 ± 0.51. Take NMYNLGFLSYYLKISGYLLD: the amyloid nucleation score was -1.85 ± 1. NNCNSSSSFIIPVAFTSVIN returned an amyloid nucleation score of -1.67 ± 0.61. As to NNLLRYSVFNI, the amyloid nucleation score result was “inactive”. NNMINDGNSMV: the amyloid nucleation score is 0.026 ± 0.39.

NNSYIRLS showed an amyloid nucleation score of -0.883 ± 0.45. NNVANW returned an amyloid nucleation score of 0.569 ± 0.48.

Substance NNWYQTGSVAEASIEPSSMQ yielded an amyloid nucleation score of 1.6 ± 0.41. As for NQALTTSPHSYIRFSCTCMF, the amyloid nucleation score is 3.89 ± 0.14. NQMCIATFHHMAYT had an amyloid nucleation score of 2.87 ± 0.086. NQNNDHSTWSIFKLCEVGCL: the amyloid nucleation score is 8.986 ± 0.045.

For NQWSLRGGYWPVVLVCFAWM, the amyloid nucleation score entry was “inactive”.

As for NRDFMCESVRNCTLALMIGS, the amyloid nucleation score result was “inactive”. NRDTM displayed an amyloid nucleation score of -1.13 ± 0.37. Regarding NRHWRFG, the amyloid nucleation score turned out to be 2.7 ± 0.11. Regarding NRKYTILVLDLLEGSLCARE, the amyloid nucleation score came out at 0.599 ± 0.42.

As for NRMEYV, the amyloid nucleation score worked out at 1.02 ± 0.23. For NRNTTFLNYF, the amyloid nucleation score was 1.94 ± 0.25. The result for NRQRRPRLVDKYGASRGVVY reads 3.31 ± 0.11; that for NRRMRKAEPLP, 0.644 ± 0.81. For NRTFSQRSVRLVSCPLLSKA, the amyloid nucleation score entry is “inactive”.

Substance NRTSYQNLIDNATTVSIMF gave an amyloid nucleation score of 1.55 ± 0.22. In turn, NRYTLDVVNFSNNYSISSNR gave an amyloid nucleation score of 1.76 ± 0.12. In turn, NRYVFLGHCVPVRGATHFLV showed an amyloid nucleation score of 0.173 ± 1.1. For the substance NSAKKLRRPGATCPGQDGYT, the amyloid nucleation score was 0.864 ± 0.41.

As for NSFFGLTVSKEEYLCFFYMF, the amyloid nucleation score entry is “inactive”. In turn, NSGHYFKDKSWCQMRS came in with an amyloid nucleation score of 0.615 ± 0.66. As to NSICSNLDDSCEAKRTSRFH, the amyloid nucleation score is -0.113 ± 0.65. Under NSIRSKDSDLRRYNPLPSTA stands 4.46 ± 0.083; under NSITSRYNGTDGPESVSQ, -0.299 ± 0.79. As for NSLMSFWVSVV, the amyloid nucleation score was found to be 0.208 ± 0.34. Under NSLVAVSLSAWWKPGDGSFS stands 6.29 ± 0.085; under NSMNVEHNMYNLFIYMPSFV, 7.065 ± 0.07. NSNFCCVGLCTNFAWFVCLM yielded an amyloid nucleation score of 8.44 ± 0.064.

Substance NSRSLTDTHDCMVTGWATRH returned an amyloid nucleation score of -0.159 ± 0.45.

Substance NSVDYSWCCNTSRIRMLVNR had an amyloid nucleation score of 1.2 ± 0.1.

In the case of NSYTFLNT, the amyloid nucleation score entry was “inactive”. Regarding NSYVKVHSIVG, the amyloid nucleation score result was “inactive”. As to NSYWWFANK, the amyloid nucleation score was determined as 2.54 ± 0.08. The substance NTCGMRSLGKTFRIVSSLGS displayed an amyloid nucleation score of 0.285 ± 0.43. Under NTFGLEILRGWSYVCLGRRR stands 5.323 ± 0.052. The substance NTGGS registered an amyloid nucleation score of -0.51 ± 0.61. In turn, NTHGR returned an amyloid nucleation score of 4.61 ± 0.073.

For the substance NTIEGPRYYGTFAISNGVTQ, the amyloid nucleation score was 0.824 ± 0.48.

In turn, NTLKVQIV came in with an amyloid nucleation score of 2.94 ± 0.075. NTNVCSSRRNPVCMMVEVVR: the amyloid nucleation score result was “inactive”. For NTVRRVCFAVVEMSASIMDG, the amyloid nucleation score turned out to be 0.738 ± 0.42. Consider NVCLGFFPD, for which the amyloid nucleation score amounted to 0.282 ± 0.8. In turn, NVDRRQGETWSNPYDLMRRL came in with an amyloid nucleation score of 0.291 ± 0.19.

Take NVLGSRLKLMNEGIDLALIK: the amyloid nucleation score worked out at 6.38 ± 0.069. On to NVLSRYYQPYMAPPENKAWD, for which the amyloid nucleation score was -0.277 ± 1. Under NVLSWKHMRAKGVNWFGGWV stands -0.066 ± 0.27. Under NVLWVDSSLFRNLRPTSERE stands 0.276 ± 1; under NVMSDYTFANTSITSCCY, -1.26 ± 0.64; under NVQRI, -0.399 ± 0.55. Under NVRTYCGFKSSNIRRWVSRH stands “inactive”; under NVTGYFSSYKVVGRMESSYV, 1.73 ± 0.19. In turn, NVVFRFVVEYNLWWLSVPDY yielded an amyloid nucleation score of -0.578 ± 1.1. The result for NVVTGVASILWGQDHNKSLV reads 0.641 ± 0.74. For NVWNLQLYPTATCAKYNGAV, the amyloid nucleation score turned out to be 4.13 ± 0.045. Substance NVYIKRIWVPFSP showed an amyloid nucleation score of -0.173 ± 0.36. For NWGNDSMRRPCCG, the amyloid nucleation score turned out to be 2 ± 0.088.

Turning to NWGWSAILKPLRFAVFRPWN, the amyloid nucleation score is 0.336 ± 0.6. As for NWIPSI, the amyloid nucleation score was -0.817 ± 0.41. Under NWSFASKVGLQMSKHAVTV stands 0.13 ± 0.42. NWVNQTS: the amyloid nucleation score was -1.6 ± 0.48.

For NYDGCRWWW, the amyloid nucleation score result was “inactive”. NYKRFCSCMLDH: the amyloid nucleation score was -0.665 ± 0.63. In turn, NYMRVNWLLFSSSQPVICVG had an amyloid nucleation score of 0.107 ± 0.79. Regarding NYRYLLFTSAVDRLQA, the amyloid nucleation score was -0.117 ± 0.21. Turning to NYSDFVVMTRSVLFWYCDQR, the amyloid nucleation score was -0.424 ± 0.26. For the substance NYSDWRVSTEIRSMGRYRPH, the amyloid nucleation score was 0.069 ± 0.65. Turning to NYSGLDERPVWVFWYLVFEY, the amyloid nucleation score is -1.09 ± 1.1. NYSGYLLNASVRRTMRRRVF: the amyloid nucleation score was -1.18 ± 0.47. Substance NYSVWVIPVFMDEHIVLFMY showed an amyloid nucleation score of 5.8 ± 0.071.

NYSYMENYICQLACKTGEAG: the amyloid nucleation score was 5.88 ± 0.084.

For NYSYMSMHTSCLSKTPSSRA, the amyloid nucleation score is -1.42 ± 1.1.

Substance NYTNVRERGYMRVEYDMSIT came in with an amyloid nucleation score of 0.202 ± 0.56.
